Results taken from paper PMC8862428, “Modeling the stimulation by glutathione of the steady state kinetics of an adenosine triphosphate binding cassette transporter” (Protein Science : A Publication of the Protein Society, 2021).

Substrate: Nc1ncnc2c1ncn2[C@@H]1O[C@H](COP(=O)(O)OP(=O)(O)OP(=O)(O)O)[C@@H](O)[C@H]1O
Experiment: molybdate phosphate-release ATPase assay, global fit to nonessential activator model
Format: biochemical, Novosphingobium aromaticivorans
Details: nanodiscs (MSP1D1/POPC), basal ATPase, constant for transporter without GSSG, Mg complex of ATP, 100 mM NaCl, 20 mM Tris pH 7.5, 37 °C
Source text: molybdate phosphate-release ATPase assay, global fit to nonessential activator model on NaAtm1

B1: NaAtm1 (Novosphingobium aromaticivorans DSM 12444) (protein)
chain: MPPETATNPKDARHDGWQTLKRFLPYLWPADNAVLRRRVVGAILMVLLGKATTLALPFAYKKAVDAMTLGGGAQPALTVALAFVLAYALGRFSGVLFDNLRNIVFERVGQDATRHLAENVFARLHKLSLRFHLARRTGEVTKVIERGTKSIDTMLYFLLFNIAPTVIELTAVIVIFWLNFGLGLVTATILAVIAYVWTTRTITEWRTHLREKMNRLDGQALARAVDSLLNYETVKYFGAESREEARYASAARAYADAAVKSENSLGLLNIAQALIVNLLMAGAMAWTVYGWSQGKLTVGDLVFVNTYLTQLFRPLDMLGMVYRTIRQGLIDMAEMFRLIDTHIEVADVPNAPALVVNRPSVTFDNVVFGYDRDREILHGLSFEVAAGSRVAIVGPSGAGKSTIARLLFRFYDPWEGRILIDGQDIAHVTQTSLRAALGIVPQDSVLFNDTIGYNIAYGRDGASRAEVDAAAKGAAIADFIARLPQGYDTEVGERGLKLSGGEKQRVAIARTLVKNPPILLFDEATSALDTRTEQDILSTMRAVASHRTTISIAHRLSTIADSDTILVLDQGRLAEQGSHLDLLRRDGLYAEMWARQAAESAEVSEAAE
notes: His-tag (NiNTA) purified from E. coli BL21-gold (DE3); 135 kDa transporter (homodimer); in DDM/C12E8 detergent, MSP1D1/POPC nanodiscs or proteoliposomes
Km: 1410 ± 80 µM
kcat: 0.531 ± 0.0173 s⁻¹
